The text below walks through data of publication PMC6746701, “A phyB-PIF1-SPA1 kinase regulatory complex promotes photomorphogenesis in Arabidopsis” (Nature Communications, 2019).

Test [1] addresses T1, strep-tagged full-length SPA1 (SUPPRESSOR OF PHYA-105 1) (Arabidopsis, UniProt Q9SYX2 1-1029).
T1 construct: 3x Flag was cloned into the SnaBI site of pPIC3.5K SPA1-strep; also called SPA1-strep; wild type SPA1; source: Pichia pastoris GS115, purified (Strep-Tactin Sepharose); not shown: Strep tag, C-terminal, kept
T1 sequence (looked up): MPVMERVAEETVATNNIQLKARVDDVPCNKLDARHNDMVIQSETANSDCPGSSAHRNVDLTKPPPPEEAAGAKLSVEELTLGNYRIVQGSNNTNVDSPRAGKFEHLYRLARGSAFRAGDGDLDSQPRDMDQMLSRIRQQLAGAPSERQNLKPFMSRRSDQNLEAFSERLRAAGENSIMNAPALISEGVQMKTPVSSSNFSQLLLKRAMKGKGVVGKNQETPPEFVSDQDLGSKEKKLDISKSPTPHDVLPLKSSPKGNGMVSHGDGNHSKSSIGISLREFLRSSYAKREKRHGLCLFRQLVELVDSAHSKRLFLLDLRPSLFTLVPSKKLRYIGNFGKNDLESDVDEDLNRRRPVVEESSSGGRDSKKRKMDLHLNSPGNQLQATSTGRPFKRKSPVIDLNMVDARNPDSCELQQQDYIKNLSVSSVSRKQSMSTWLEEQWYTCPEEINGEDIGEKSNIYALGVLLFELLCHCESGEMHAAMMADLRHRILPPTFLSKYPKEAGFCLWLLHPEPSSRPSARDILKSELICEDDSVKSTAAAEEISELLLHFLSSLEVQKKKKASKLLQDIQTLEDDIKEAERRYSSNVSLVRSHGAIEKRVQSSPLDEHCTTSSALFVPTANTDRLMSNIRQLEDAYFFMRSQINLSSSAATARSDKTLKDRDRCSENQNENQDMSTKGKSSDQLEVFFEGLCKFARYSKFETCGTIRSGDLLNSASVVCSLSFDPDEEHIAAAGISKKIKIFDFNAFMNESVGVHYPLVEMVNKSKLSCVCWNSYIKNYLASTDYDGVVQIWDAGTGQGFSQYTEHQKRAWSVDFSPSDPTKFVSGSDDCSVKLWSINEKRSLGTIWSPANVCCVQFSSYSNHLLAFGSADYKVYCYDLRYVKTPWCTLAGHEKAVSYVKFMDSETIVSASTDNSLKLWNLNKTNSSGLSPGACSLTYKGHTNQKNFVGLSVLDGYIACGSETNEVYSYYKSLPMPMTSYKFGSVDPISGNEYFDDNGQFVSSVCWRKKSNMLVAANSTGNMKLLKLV
The test is described as follows: pull-down; 2 µg GST-PIF1 on GST agarose beads, 1 µg SPA1 or mSPA1; 50 mM Tris pH 7.5, 150 mM NaCl, 1 mM EDTA, 0.1% Tergitol NP-40, 0.5 mM DTT; 2 h at 4 °C; Coomassie staining. The note with it: both partners purified.

The target of test [2] is T2, strep-tagged full-length mSPA1 (SPA1 R517E) (Arabidopsis, UniProt Q9SYX2 1-1029, R517E).
T2 construct: SPA1, Arabidopsis, full length, with the kinase-domain point mutation R517E; Same construct as m1 apart from R517E; also called mSPA1-strep; mutant SPA1; source: Pichia pastoris, purified (Strep-Tactin Sepharose); not shown: Strep tag, C-terminal, kept
T2 sequence (looked up): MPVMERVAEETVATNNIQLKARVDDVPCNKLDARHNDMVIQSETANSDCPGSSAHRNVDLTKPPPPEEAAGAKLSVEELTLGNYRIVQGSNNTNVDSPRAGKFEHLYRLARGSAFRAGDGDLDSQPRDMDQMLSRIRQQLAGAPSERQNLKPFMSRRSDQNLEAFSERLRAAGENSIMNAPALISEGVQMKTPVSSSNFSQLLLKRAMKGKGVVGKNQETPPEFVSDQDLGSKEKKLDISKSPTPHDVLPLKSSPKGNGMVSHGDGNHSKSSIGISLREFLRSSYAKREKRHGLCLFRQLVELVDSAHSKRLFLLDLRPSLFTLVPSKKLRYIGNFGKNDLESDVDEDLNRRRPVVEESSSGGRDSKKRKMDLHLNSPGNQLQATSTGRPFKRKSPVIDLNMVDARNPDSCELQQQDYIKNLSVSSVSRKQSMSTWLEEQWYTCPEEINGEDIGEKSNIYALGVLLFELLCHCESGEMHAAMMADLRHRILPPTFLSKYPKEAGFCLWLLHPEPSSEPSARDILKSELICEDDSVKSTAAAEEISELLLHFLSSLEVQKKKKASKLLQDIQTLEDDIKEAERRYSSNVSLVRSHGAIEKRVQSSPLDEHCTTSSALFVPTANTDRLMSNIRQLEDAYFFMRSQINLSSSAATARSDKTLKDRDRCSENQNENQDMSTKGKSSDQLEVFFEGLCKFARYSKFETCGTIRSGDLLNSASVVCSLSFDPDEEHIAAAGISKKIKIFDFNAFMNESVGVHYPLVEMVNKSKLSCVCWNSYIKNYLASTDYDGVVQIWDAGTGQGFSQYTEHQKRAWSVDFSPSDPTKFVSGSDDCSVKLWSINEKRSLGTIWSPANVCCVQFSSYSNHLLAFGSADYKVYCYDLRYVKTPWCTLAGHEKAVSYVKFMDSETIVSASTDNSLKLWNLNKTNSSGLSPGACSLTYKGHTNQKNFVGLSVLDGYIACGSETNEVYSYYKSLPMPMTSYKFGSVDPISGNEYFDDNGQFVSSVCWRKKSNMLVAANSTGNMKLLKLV
Described as above. The conditions noted are these: both partners purified.

B1: GST-PIF1-strep (natural protein, Arabidopsis, UniProt Q8GZM7 1-478, looked up)
chain: MHHFVPDFDTDDDYVNNHNSSLNHLPRKSITTMGEDDDLMELLWQNGQVVVQNQRLHTKKPSSSPPKLLPSMDPQQQPSSDQNLFIQEDEMTSWLHYPLRDDDFCSDLLFSAAPTATATATVSQVTAARPPVSSTNESRPPVRNFMNFSRLRGDFNNGRGGESGPLLSKAVVRESTQVSPSATPSAAASESGLTRRTDGTDSSAVAGGGAYNRKGKAVAMTAPAIEITGTSSSVVSKSEIEPEKTNVDDRKRKEREATTTDETESRSEETKQARVSTTSTKRSRAAEVHNLSERKRRDRINERMKALQELIPRCNKSDKASMLDEAIEYMKSLQLQIQMMSMGCGMMPMMYPGMQQYMPHMAMGMGMNQPIPPPSFMPFPNMLAAQRPLPTQTHMAGSGPQYPVHASDPSRVFVPNQQYDPTSGQPQYPAGYTDPYQQFRGLHPTQPPQFQNQATSYPSSSRVSSSKESEDHGNHTTG
notes: source: E. coli BL21(DE3), purified (Strep-Tactin Sepharose); not shown: GST, N-terminal, kept; Strep tag, C-terminal, kept
For the molecule B1, the binding result in test [1] and in test [2] was “binds” in each case.
